{"source": "paper PMC5921052", "target": "Hsp90 yeast homologue (Hsc82) (yeast) (UniProt P15108)", "sequence (P15108 whole entry, the tested form may be a part)": "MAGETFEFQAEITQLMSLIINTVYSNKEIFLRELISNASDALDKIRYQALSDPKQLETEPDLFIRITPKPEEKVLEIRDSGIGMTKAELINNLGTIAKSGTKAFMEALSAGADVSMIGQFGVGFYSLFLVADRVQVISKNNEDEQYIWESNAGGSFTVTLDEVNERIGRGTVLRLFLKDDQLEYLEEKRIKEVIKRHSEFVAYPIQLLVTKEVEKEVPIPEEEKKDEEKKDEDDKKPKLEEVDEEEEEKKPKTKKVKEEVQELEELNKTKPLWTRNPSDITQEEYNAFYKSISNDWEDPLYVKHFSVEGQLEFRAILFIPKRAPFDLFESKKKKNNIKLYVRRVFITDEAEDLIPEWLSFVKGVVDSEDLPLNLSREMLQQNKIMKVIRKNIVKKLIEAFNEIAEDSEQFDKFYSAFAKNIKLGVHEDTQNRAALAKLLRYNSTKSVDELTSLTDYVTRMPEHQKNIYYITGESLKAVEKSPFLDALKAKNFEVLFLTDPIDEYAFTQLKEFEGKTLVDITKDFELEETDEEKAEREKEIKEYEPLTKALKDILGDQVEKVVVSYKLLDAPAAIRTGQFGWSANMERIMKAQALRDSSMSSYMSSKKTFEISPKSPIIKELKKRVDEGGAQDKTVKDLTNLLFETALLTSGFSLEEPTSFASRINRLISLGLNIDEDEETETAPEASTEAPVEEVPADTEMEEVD", "data": [{"substance": "model client protein Δ131Δ (domain or fragment)", "values": [{"measurement": "other", "value": 1.8, "unit": "fold"}]}]}
